Test results published in the supplement of paper PMC9732359.
± gives the uncertainty stated by the source.

Assay: protein stability index of a GFP-peptide fusion (yeast GPS) (PSI 1-4); higher = more stable; sorted into four equal gates, so the index is relative within each strain
Settings: doa10∆
Outline: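 Mid-log yeast cultures in leucine-free medium, carrying a pooled plasmid library, were sorted into four equal gates by their GFP/Cherry fluorescence ratio. Each plasmid expressed Cherry along with GFP fused upstream of a tiled 17-residue yeast protein peptide. Plasmids recovered from each gate were PCR-amplified and Illumina-sequenced, with reads assigned to strains by barcodes. The protein stability index was obtained by summing each gate's read frequency weighted by its gate number.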

Sequence	protein stability index
PTITLDDVYRPAAESKI [SNF5]	3.13 ± 0.068
PTKTLTTKERKKSRLGN [PRP8]	2.33 ± 0.079
PTLPTNHNKTKLLKSLK [PRP8]	2.33 ± 0.07
PTNCPLRQFKTCPVEVI [BRR2]	3 ± 0.093
PTQITQYTQRLSKLEKA [SRP68]	1.75 ± 0.06
PTSPAYSPTSPSYSPTS [RPO21]	2.89 ± 0.051
PTVSLTINLDRFMKGRR [RPC82]	2.38 ± 0.083
PVRALIVQAKEPNLAAQ [ECM29]	2.14 ± 0.11
PVSCIIQNDEEYDTPAL [PRP8]	1.79 ± 0.1
PVSTASYRLLPQINILQ [RPC40]	1.61 ± 0.053
PVSVSRIARALKQEGAA [RPL18A]	3.36 ± 0.22
PVVQVGIFIKILNDSLI [IRR1]	1.5 ± 0.052
PVVRAPTVKYNRKVRAG [RPL13A]	1.22 ± 0.1
PVYTAQWSATWIAMRRE [PRP8]	1.68 ± 0.079
PYAVLSQFYELRDREDW [YJR042W/NUP85]	2.16 ± 0.16
PYLPKHYLVLLVAKFLY [YJR042W/NUP85]	1.3 ± 0.084
PYMPYYYYYHPMNAPTP [DSN1]	2.52 ± 0.043
PYNLNLFPNELYNVMGI [RPC31]	2.12 ± 0.061
QALRVLRLKPGRKYTTL [RPL16B]	2.34 ± 0.055
QANIQLYSIREDYELSP [PRE1]	2.96 ± 0.1
QANSNLTLLERKWVIFI [NUT1]	1.85 ± 0.055
QAPSELELQVAKTFIDL [RPS7B]	3.06 ± 0.054
QAQLRIDDKTQNDELTM [DIS3]	2.42 ± 0.085
QDDADPMVSVMKMDKSP [RPT2]	1.16 ± 0.065
QDGGVTPYSNESGLVNA [RPO21]	2.68 ± 0.055
QDLPKINDKRANLMLVM [SRB4]	1.91 ± 0.073

Sequence	protein stability index
QDLSRNTLGKGQNCLDI [SNU114]	3.35 ± 0.12
QDNKKIYVHVRRSTPFS [ESC2]	2.34 ± 0.049
QDVIKVLYQSNATHDED [SWP82]	2.91 ± 0.043
QEDELDEGTALSRLGLK [RPB10]	3.41 ± 0.073
QEETVVEQTAEVTIEDA [RPS12]	3.36 ± 0.12
QEIFDANVQRLKEYQSK [RPL13A]	3.06 ± 0.097
QEKNFQTGIFVYQNNIT [RPB5]	2.49 ± 0.064
QELKLTCVAKKGIAKEH [RPB3]	3.09 ± 0.23
QEMIDILETIFRGARKN [DIB1]	2.83 ± 0.14
QENKNIDDENITKLNKE [SRB4]	3.44 ± 0.056
QEQGSFQHILRLLNTNV [RPS18A]	2.97 ± 0.045
QEQITLYDHWDKYHEQW [SSN8]	3.32 ± 0.19
QESFINTMSAWVNMLLI [FAS2]	2.2 ± 0.077
QESSSTLSTHSTTTSVN [SIN4]	3.04 ± 0.04
QETASPLSQDELISLRK [YIL149C/MLP2]	2.42 ± 0.06
QETEGTNRHTLALETVL [SIR3]	2.72 ± 0.063
QFELLSRRWRQRKNIQS [BRR2]	1.44 ± 0.08
QFEVSDDEKNDKQARKQ [SNF2]	3.38 ± 0.083
QFEWHQNSLLTNTHPNF [SNF2]	2.87 ± 0.063
QFINLAGYKKLGLKFDD [QCR7]	2.43 ± 0.2
QFNAQGVRDINCVNDVL [POP1]	2.92 ± 0.17
QFTLYDRELNEVINQME [SMC3]	3.01 ± 0.095
QFTSSLFKALKVILNER [RGR1]	2.03 ± 0.11
QGGNNELGTAVGKLFRV [RPL30]	2.5 ± 0.12
QGGVLPNIHQNLLPKKS [HTA1]	2.67 ± 0.082
QGPVKNTQLHGPSATDP [RGR1]	2.93 ± 0.062

Sequence	protein stability index
QGSVTVGLRSNTHAVLV [PRE5]	1.24 ± 0.033
QHEQGTFEKHDRVEDIC [RRI2]	2.89 ± 0.091
QIEGPFLIIVPKSTLDN [ISW2]	2.88 ± 0.13
QIELSCNERVPLSVATE [SRP72]	2.11 ± 0.04
QILQGICKNCSAILLSE [RPO31]	2.17 ± 0.071
QINIMPSLKAHFTEIKL [SIR3]	2.18 ± 0.056
QISIIDIWSISKKRQAE [YML031W/NDC1]	2.32 ± 0.056
QIYGFEGLNQRNQVQTE [YGR119C/NUP57]	3.16 ± 0.17
QKDQDGRIPLHWSVSFQ [NAS6]	3.29 ± 0.093
QKETQKVTKIWSKESNY [PRP28]	1.63 ± 0.04
QKMAKAKKQNRPLPQWI [RPL39]	2.97 ± 0.13
QKQLPQKTRVKLLFDHD [ESC2]	2.86 ± 0.057
QKSPKIRDPLTQTGLLQ [RPC82]	1.81 ± 0.069
QKVNAVDSTFQKVSENF [SMC3]	3.29 ± 0.091
QKVQGESHIDSRNNTLN [SIR4]	3.02 ± 0.057
QKYNQIQKQIETIQADL [SMC2]	2.68 ± 0.047
QLAVANEIIRSLSDEVM [SIR4]	3.16 ± 0.077
QLDFTEFDEQYGTRPLV [SNF2]	3.26 ± 0.048
QLKDMQTIEMITQIVEK [SRB8]	2.87 ± 0.069
QLLIIEKEWENAIRIGE [SRP72]	1.44 ± 0.052
QLLQRLNDMNTEISGLK [SMC3]	3.28 ± 0.081
QLSQDEHSQVEQTCVKL [SRP72]	3.17 ± 0.16
QLVTREAQIKDWVENEL [FAS2]	3.44 ± 0.1
QLYHLEQQKEELTDKLS [SMC1]	2.23 ± 0.16
QMMSKGIGALFTQQELQ [RPC34]	3.3 ± 0.11
QMSDKHATVVPPEEFSN [SRB7]	2.98 ± 0.05

Sequence	protein stability index
QMSLEANVVDITNDWEQ [YJR042W/NUP85]	2.65 ± 0.077
QMTWRQWLNNALKRSYG [POP8]	2.9 ± 0.085
QNDELKFQGVLESEAQK [RPC34]	3.41 ± 0.11
QNIKAPSVKRQKMAELE [PRP8]	3.29 ± 0.088
QNNKPSFVFGQAAAKPS [YLR335W/NUP2]	1.77 ± 0.05
QNNNTLGGGGLFGQSQQ [YGR119C/NUP57]	3.43 ± 0.13
QNPMRDLKIEKLVLNIS [RPL11A]	3.04 ± 0.076
QNSKEKNGLGLNFSTTA [MED2]	2.9 ± 0.11
QNYRLDGRSFDQFRDVE [RRP45]	3.42 ± 0.15
QPASYHSVQETNKISPK [SSN2]	3.34 ± 0.098
QPIEKNGDKMPLKFKLG [YJR042W/NUP85]	2.74 ± 0.064
QPKGVILYGPPGTGKTL [RPT6]	3.47 ± 0.15
QPPTNVQPTIGQLPQLP [SNF5]	3.14 ± 0.055
QPQPQPQQQQQHLQFNG [YDL088C/ASM4]	2.6 ± 0.036
QPTIRKDGLKLVGSWKK [RPO21]	3.52 ± 0.19
QQIQEQVLKCKESWDPN [YGR119C/NUP57]	3.3 ± 0.17
QQKLNTRMQRGHRADVG [REC8]	2.84 ± 0.16
QQLAYDLSISALLGDKI [RPN9]	2.4 ± 0.052
QQLRTWKRQISYFLKLL [SRB8]	1.63 ± 0.049
QQPHYIQRTRERKKSIG [DSN1]	2.93 ± 0.067
QQQLYGGNNNNNSTGIA [SWI1]	3.12 ± 0.076
QQQQQNTNNNDTIATSA [GAL11]	2.457 ± 0.021
QQQQQQNGQQPPTTSNL [YML103C/NUP188]	2.502 ± 0.02
QQREAVRQLYKGKKYQP [RPL35A]	3.63 ± 0.29
QQTAKKLIPKLYRYRFD [ECM29]	2.24 ± 0.13
